{"source": "patent US6420157B1", "about": "“Zymogen activation system” (Ortho-McNeil Pharmaceutical, Inc., priority 1999, dated 2002)", "molecules": {"B1": {"name": "PFEK-MH2-6XHIS: catalytic domain of human protease MH2 in the PFEK1-6XHIS-TAG activation construct (SEQ.ID.NO.:54), EK-activated (protein)", "chain": "MDSKGSSQKSRLLLLLVVSNLLLCQGVVSDYKDDDDVDAAALAAPFDDDDKIVGGYNCLEPHSQPWQAALVMENELFCSGVLVHPQWVLSAAHCFQNSYTIGLGLHSLEADQEPGSQMVEASLSVRHPEYNRPLLANDLMLIKLDESVSESDTIRSISIASQCPTAGNSCLVSGWGLLANGRMPTVLQCVNVSVVSEEVCSKLYDPLYHPSMFCAGGGHDQKDSCNGDSGGPLICNGYLQGLVSFGKAPCGQVGVPGVYTNLCKFTEWIEKTVQASSRHHHHHH"}}, "assay_type_in_all_cases": "biochemical", "conditions_in_all_cases": "EK-activated protease; substrate 500 uM; pH 7.8; 37° C.; 120 minutes", "key": {"[1]": {"test": "Chromogenic amidolytic assay, release of pNA from H-D-Pro-HHT-Arg-pNA", "method": "(§1) Cells were lysed on ice in 20 mM Tris (pH7.4), 150 mM NaCl, 1% Triton X-100, 1 mM EDTA, 1 mM EGTA, 1 mM PMSF, leupeptin (1 μg/ml), and pepstatin (1 μg/ml). Cell lysates were mixed with anti-FLAG M2 affinity gel (Eastman Kodak Co., New Haven, Conn.) and bound at 4° C. for 3 hours with gentle rotation. The zymogen-bound resin was washed 3 times with TBS buffer (50 mM Tris-HCl, 150 mM NaCl at a final pH of 7.5), and eluted by competition with FLAG peptide (100 μg/ml) in TBS buffer. The eluted zymogen was dialyzed overnight against TBS in Spectra/Por membrane (MWCO: 12,000-14,000) (Spectra Medical Industries, Inc., Huston, Tex.). […] Eluted protein concentration was determined by a Micro BCA Kit (Pierce, Rockford, Ill.) using bovine serum albumin as a standard. Amidolytic activities of the activated protease was monitored by release of para-nitroaniline (pNA) from the synthetic substrates indicated in Table 2. […] Release of pNA was measured over 120 minutes at 37° C. on a micro-plate reader (Molecular Devices, Menlo Park, Calif.) with a 405 nm absorbance filter. The initial reaction rates (Vmax, mOD/min) were determined from plots of absorbance versus time using Softmax (Molecular Devices, Menlo Park, Calif.). […] No measurable chromogenic amidolytic activity was detected with the purified unactivated zymogens. […]"}, "[2]": {"test": "Chromogenic amidolytic assay, release of pNA from H-D-Lys(CBO)-Pro-Arg-pNA", "method": "as §1"}, "[3]": {"test": "Chromogenic amidolytic assay, release of pNA from H-D-Val-Leu-Lys-pNA", "method": "as §1"}, "[4]": {"test": "Chromogenic amidolytic assay, release of pNA from H-DL-Val-Leu-Arg-pNA", "method": "as §1"}}, "data": [{"molecule": "B1", "values": [{"measurement": "specific activity, H-D-Pro-HHT-Arg-pNA", "setting": "[1]", "result": "0.052 nmole pNA produced /min/ug protein"}, {"measurement": "specific activity, H-D-Lys(CBO)-Pro-Arg-pNA", "setting": "[2]", "result": "0.893 nmole pNA produced /min/ug protein"}, {"measurement": "specific activity, H-D-Val-Leu-Lys-pNA", "setting": "[3]", "result": "0.121 nmole pNA produced /min/ug protein"}, {"measurement": "specific activity, H-DL-Val-Leu-Arg-pNA", "setting": "[4]", "result": "0.058 nmole pNA produced /min/ug protein"}]}]}
